Assays:
NC(=O)NC(=O)NC(N)=O = system: T1, NC(=O)NC(=O)NC(N)=O; experiment: ammonia release, Berthelot assay; type: biochemical, Rhodococcus sp. Mel; conditions: phosphate buffer, pH optimum, 25 °C, saturation not achieved
T1 construct: recombinant

NC(=O)NC(N)=O = system: T2, NC(=O)NC(N)=O; experiment: ammonia release, Berthelot assay; type: biochemical, Rhodococcus sp. Mel; conditions: phosphate buffer, pH optimum, 25 °C
T2 construct: recombinant

[1] = target: Triuret hydrolase (TrtA) from Herbaspirillum sp. BH-1, wild type, His-tag cleaved (Herbaspirillum sp. BH-1); experiment: SEC; HiLoad 16/600 Superdex 200 pg, 50 mM Tris, 200 mM sodium chloride, pH 8, 1 ml/min; His-tag cleaved TrtA

RhdBiuH (Rhodococcus sp. Mel), sequence (chain, as listed by the source): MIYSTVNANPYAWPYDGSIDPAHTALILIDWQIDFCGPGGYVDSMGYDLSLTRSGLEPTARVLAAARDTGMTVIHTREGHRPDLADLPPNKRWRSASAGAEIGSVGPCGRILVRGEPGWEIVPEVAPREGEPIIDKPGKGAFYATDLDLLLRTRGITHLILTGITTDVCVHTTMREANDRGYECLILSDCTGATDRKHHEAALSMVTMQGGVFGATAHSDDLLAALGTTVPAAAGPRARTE

stoichiometry N [1] | Substance | kcat (NC(=O)NC(=O)NC(N)=O) | kcat/Km (NC(=O)NC(=O)NC(N)=O) | Km (NC(=O)NC(N)=O)
 | RhdBiuH (Rhodococcus sp. Mel) | 0.14 s⁻¹ | 170 ± 40 M⁻¹ s⁻¹ | 95 ± 26 µM
2 | Triuret hydrolase (TrtA) from Herbaspirillum sp. BH-1, wild type, His-tag cleaved (from UniProt A0A2N6JFX7 1-220) (enzyme) |  |  | 

From article PMC7948467, “Discovery of an ultraspecific triuret hydrolase (TrtA) establishes the triuret biodegradation pathway” (The Journal of Biological Chemistry, 2020)
